Results: the RNAGym collection of RNA variant scans (doi:10.1021/acssynbio.7b00057)

B1: Pistol ribozyme (parent)
chain: GGGUCGUUGUUCCAUAAUCGCGUGGAUAUGGCACGCAAGUUUCUACCGGGCACCGUAAAUGUCCGACUGGAGCCGUUCGGGCGGCUAUAAACAGACCUCAGGCCCGAAGCGUGGCGGCACCUGCCGCCGGUGGUAAAAAAGAUCGGAAGAGCACACGUCU

Variants of: B1
Experiment: aptazyme ON/OFF ratio, guanine; higher = stronger switching; co-transcriptional cleavage with and without guanine

Variant | aptazyme ON/OFF ratio
U7G U8G U10C U11G C13U | 1.47
U7G G9U U10G U11C C12U C13A | 1.23
U7A U8C G9A U10G U11G C12U C13G | 1.33
U7G G9C U10C U11C C12A C13A | 1.02
U7G U8A G9C U10C U11G C12G C13A | 1.02
U7G G9A U10C U11C C13G | 1.03
U7C U8C G9C U10C U11G C12A C13A | 1.08
G9A U10G U11A C13U | 1.05
U7C U8A U10A U11C C12U C13U | 1.04
U8C G9C U10A C12G C13A | 1.2
U7G U8A U10C U11A C12U C13A | 1.3
U10C C13G | 1.05
G9C U10C U11A | 1.12
U7C U8G G9U U11C C12G C13A | 1.26
U7G U8G U10A C12A C13U | 1.33
U7A U8G G9A U11A C12U C13A | 1.37
U8C G9A U10C U11G C12G C13U | 1.14
U7G U8G G9C U10C U11G C12U C13G | 1.22
U7C U8A G9C U10C U11G C12A C13A | 1.21
U8C G9A U10C C12U | 1.95
U7G U8A G9U U11C C12U C13U | 1.02
U7C U8A G9A U11C C12A C13G | 1.15
U8C G9C U10C C12G | 1.06
U7G G9C U10C U11A C12G C13A | 1.13

Variant | aptazyme ON/OFF ratio
U7G U8G G9C U10C | 2.35
U7G G9U U10G U11A C12A C13G | 1.06
U10G U11C C12A C13G | 1.12
U7G U8A G9U U10C U11C C12U C13A | 1.03
U7C U8A G9U U11C C13A | 1.04
U7C U8G G9A U10G U11C C12U C13G | 1.25
U7G U8G G9U U10C U11A C12G C13U | 1.45
U7C U8C G9A U10A U11G C12A C13G | 1.09
G9C U11C C12G C13U | 1.19
U7A U8A G9U U11C C12G C13U | 1.29
U7G U8A G9A U10G U11C C12A C13A | 1.1
U8G G9A U10G U11G C13A | 1.56
G9A U10A U11C C12G | 1.32
U7A U8G G9C U10C C12U C13G | 1.17
G9A U10G U11A C13A | 1.01
U8G G9C U11C C12A | 1.05
U7G G9A U11A C13U | 1.2
U7A U8C G9U U10A U11C C12G C13U | 1.18
U7G U8A G9A U10A U11G | 1.28
U7C U8C G9C C12G C13U | 1.07
U7C U8A G9A C12U C13A | 1.19
U7A U8C G9U U10G U11G C12A C13U | 1.37
U7C U8A G9A U10G U11C C12G | 1.21
U7A U8G G9U U11G C12G C13G | 1.19

Variant | aptazyme ON/OFF ratio
U7A U10C U11C C12G C13G | 1.09
U7C U8A G9A U10G U11C C12G C13U | 1.25
U8C G9U U11C | 1.07
U7C U8G G9C U11G C12U C13G | 1.21
U7A U8C G9A U10C C12A | 1.21
U7C U8A G9U C13G | 1.03
U7G U8G G9U U10C C12G | 1.22
U8C U10G U11G C12A C13G | 1.09
U8G G9A U10G U11A C12G C13G | 1.03
U8A G9A U10C U11A C12G C13U | 1.22
U7G G9U U10G U11A C12U C13A | 1.17
U7C U8A G9A U11G C12U | 1.37
U10G U11C C12U C13U | 1.11
U7A G9A U10G U11A C13A | 1.09
U7G G9A U10G C12A C13G | 1.15
U10A C12G C13A | 1.4
U7C U8C U11C C12G C13G | 1.31
U8A G9C U11A | 1.21
U7C G9U U10G U11A C12A C13A | 1.2
U8C U10A U11G C12A C13G | 1.26
U7A G9C U11C C12A | 1.09
U10C | 3.69
U7C U8G G9C U10G U11A C12U C13G | 1.27
U10A U11G C13G | 1.19

Variant | aptazyme ON/OFF ratio
U7A U8G U10C U11A C13U | 1.21
U7G U8A G9U U10A U11A C13U | 1.07
U7A U8C U11A C12A C13A | 1.2
U7A U8A G9U U10C U11C C12G C13A | 1.07
U7C U8G U10C C12A C13G | 1.1
U7A U8G G9C U11C C12U C13A | 1.41
U7G U8G G9A U10A U11A C12A C13G | 1.07
U7C U8A G9C U11A C12A C13G | 1.08
U7G G9A U10A U11G | 2.05
U7A G9A U10A U11G C12A C13G | 1.22
U7A U8A U11C | 1.38
U7A U8G G9C U10A C12G | 1.43
U7C U8C G9C U10A U11A C12A | 1.21
U7G U8C G9A C12G C13G | 1.04
U7C U8A G9A U11G C12U C13G | 1.14
U7A U8C G9C U10G U11C C12A C13U | 1.09
U8A G9A U11C C12G | 1.17
U7G U8A G9C U10G C12G C13U | 1.18
U7G U8G G9U U10C U11A C12G C13A | 1.14
U8A G9U U10C C12U C13A | 1.08
U7G G9U U10A U11C C12U C13U | 1.39
U7G G9U U10C C12U C13G | 1.31
U7C U8A G9A U10C C12U C13U | 1.26
U7C U8C G9A C12U C13G | 1.27

Variant | aptazyme ON/OFF ratio
U7C U8G G9C U10A C12U C13U | 1.05
U7C U8C G9U U10A U11C C12G | 1.36
U7G U8G G9C U10G U11A C13G | 1.05
U8C G9C U10C U11C | 0.964
U7G U8C G9U U10C U11C C12A C13G | 1.22
U8G G9A U10C U11A C13G | 1.06
U7A U8G G9C U10G C12U C13G | 1.23
U7G U8A G9A C12A | 1.06
U7G U8C U10C U11G C12U C13U | 1.31
U7G U8A G9C U11A C12U | 1.03
U7C U8G U11G C12U C13G | 1.07
U8C U10C U11C C12U C13A | 1.23
U7C U8C G9C U10C U11C C12A C13A | 0.986
U7G U8A G9C U10G U11C C12U C13A | 1.05
U7G U10A U11G C12U C13U | 1.28
U7G U8G U10C U11C C12G C13U | 1.45
U7G U8G U10G C12A C13U | 1.4
U7C U8G U10G U11C C13G | 1.2
U7G U8G U10C C12U | 1.52
U7A U8A G9A U10G U11A C12G C13U | 1.33
U8C G9C U10G U11A C12A C13G | 1.1
U7A G9A U10G U11C C12A | 1.21
U7A U8C G9A U10G U11G C12U C13U | 1.07
U7A U8G G9C U10C U11C C12A C13G | 1.06

Variant | aptazyme ON/OFF ratio
U8A G9A U11G C12A C13A | 1.14
U7G U8G G9A U10A C13A | 1.28
U7G U8G G9C U10G U11C C12U | 1.04
U8C G9U U10A U11A C13G | 1.07
U7G G9A U10G C12G | 1.09
U7C U8A G9U U10G U11G C12G C13U | 1.14
U7A U8G G9A U11A C12G | 1.37
U7C G9A U10A U11G C12G C13A | 1.12
U8C U10A U11A C12A C13U | 1.12
U7A U8C G9U U10C U11G C12G C13U | 1.06
U7G G9A U11C C12U C13G | 1.19
U8C G9C U10G U11G C12A | 1.15
U7A U8G G9C U10A U11C C12G C13U | 1.26
U7G U8C G9A U10G C12U C13U | 1.26
U8A G9A C12A C13A | 1.3
U7A U8A G9U U11C C12A | 1.17
U7C U8C G9U U10C C12G C13G | 1.11
U7C U8C G9U U10G U11C C12A C13U | 1.1
U8A G9A U10A U11C C12A | 1.09
U7A U8A U10A U11G C12A C13U | 1.18
U7C U8A G9C U10G U11A C13A | 1.08
U7A U8G G9A U11A C13G | 1.21
U8A G9U U10C U11G C12U C13U | 1.25
U7A U8A G9C U10A C12A C13U | 1.18

Variant | aptazyme ON/OFF ratio
U7C U8C G9U C12A C13G | 1.1
U8G G9U U10A U11C C12A C13U | 1.16
U7C U8A C12A C13A | 1.34
U7A U8A G9C U10C C13G | 1
U7C U8C G9C U10G C12G | 1.1
U7C G9U C12U C13A | 1.12
U7A U8C G9A C13A | 1.14
U7C U8A G9A C12G C13U | 1.17
U7C G9A U11G C12A | 1.08
U7A U8G G9U U10G U11G C12U C13G | 1.3
U7G U8A G9C U10G C12U C13G | 1.03
U7A U8G U11G C13A | 1.26
U7G U8C G9U U10C U11A C12U | 2.96
U7A U8A U11C C13G | 1.09
U7G U8A G9C U10G U11A C12U C13U | 1.03
U7C U10C U11A C12G C13G | 1.15
U7G U10C C12A | 1.12
G9C U10A U11G C12G C13G | 1.13
U7G U10G U11C | 1.07
U7C G9U U10G C12A C13U | 1.24
U8G G9C U10G C12A C13U | 1.15
U7A U8C G9C U10G U11A C12U C13A | 1.07
U7A U10A U11G C12G | 1.45
